The values below come from the supplement of paper PMC9112550, “Optimization of the antimicrobial peptide Bac7 by deep mutational scanning” (BMC Biology, 2022).

The test system of the series is Escherichia coli TOP10. As to the kind of experiment: shrunken log2 fold change of peptide-encoding DNA abundance (4.5 h post-induction vs induction); higher = less antimicrobial activity (less host growth inhibition). The settings on record: time post-induction: 4.5 h; library: site-saturation at positions 5, 18, 19, 20.
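Note: peptides expressed intracellularly from a pBAD plasmid library in pooled LB shake-flask culture, induced with 0.3% L-arabinose, DNA abundance read by NGS, three biological replicates, DESeq2 with apeglm shrinkage.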

As for RRIRHRPPRLPRPRPRPGISPRP, the “shrunken log2 fold change” value was -0.315.

As to RRIRHRPPRLPRPRPRPHSGPRP, the “shrunken log2 fold change” value is -0.487.

Regarding RRIRSRPPRLPRPRPRPKQWPRP, the “shrunken log2 fold change” value amounted to 0.474. As to RRIRARPPRLPRPRPRPEWGPRP, the “shrunken log2 fold change” value was 1.06.

Turning to RRIRFRPPRLPRPRPRPILWPRP, the “shrunken log2 fold change” value is -0.0429. In the case of RRIRWRPPRLPRPRPRPQRTPRP, the “shrunken log2 fold change” value was -0.0113. The figure for RRIRGRPPRLPRPRPRPSDMPRP is 0.488; for RRIRERPPRLPRPRPRPALPPRP it is 0.439; for RRIRWRPPRLPRPRPRPRKPPRP it is 0.188.

As for RRIRQRPPRLPRPRPRPPKLPRP, the “shrunken log2 fold change” value is 0.202. The figure for RRIRWRPPRLPRPRPRPTNAPRP is 0.0747. Take RRIRVRPPRLPRPRPRPSVFPRP: the “shrunken log2 fold change” value is -0.126. The figure for RRIRNRPPRLPRPRPRPDFLPRP is -0.342.

Regarding RRIRHRPPRLPRPRPRPHMDPRP, the “shrunken log2 fold change” value is -0.162. The figure for RRIRDRPPRLPRPRPRPYKAPRP is -0.0157; for RRIRFRPPRLPRPRPRPQVYPRP it is -0.167; for RRIRERPPRLPRPRPRPWHSPRP it is -0.252.

As for RRIRPRPPRLPRPRPRPGYCPRP, the “shrunken log2 fold change” value was -0.147. As to RRIRYRPPRLPRPRPRPISDPRP, the “shrunken log2 fold change” value was -0.237. Take RRIRPRPPRLPRPRPRPQNIPRP: the “shrunken log2 fold change” value is -0.456. As to RRIRARPPRLPRPRPRPHMVPRP, the “shrunken log2 fold change” value is -0.069.

RRIRNRPPRLPRPRPRPEMHPRP: the “shrunken log2 fold change” value was determined as 0.191. The figure for RRIRSRPPRLPRPRPRPNIGPRP is -0.283. Consider RRIRWRPPRLPRPRPRPNQFPRP, for which the “shrunken log2 fold change” value is 0.0104.

RRIRKRPPRLPRPRPRPFGFPRP: the “shrunken log2 fold change” value was -0.137.

Consider RRIRNRPPRLPRPRPRPVNGPRP, for which the “shrunken log2 fold change” value was -0.372. The figure for RRIRKRPPRLPRPRPRPHTFPRP is -0.309; for RRIRCRPPRLPRPRPRPVFKPRP it is -0.355; for RRIRHRPPRLPRPRPRPMTVPRP it is 0.055. As for RRIRDRPPRLPRPRPRPIHEPRP, the “shrunken log2 fold change” value was -0.0852. Turning to RRIRFRPPRLPRPRPRPYQIPRP, the “shrunken log2 fold change” value was -0.471. Consider RRIRHRPPRLPRPRPRPLDCPRP, for which the “shrunken log2 fold change” value was -0.384. Take RRIRCRPPRLPRPRPRPKKNPRP: the “shrunken log2 fold change” value was determined as 0.24. Take RRIRARPPRLPRPRPRPIVEPRP: the “shrunken log2 fold change” value was found to be 0.207.

Turning to RRIRWRPPRLPRPRPRPAGSPRP, the “shrunken log2 fold change” value was -0.176. As for RRIRERPPRLPRPRPRPPGDPRP, the “shrunken log2 fold change” value amounted to 0.619.

For the sequence RRIRARPPRLPRPRPRPECCPRP, the “shrunken log2 fold change” value was found to be 0.996. RRIRQRPPRLPRPRPRPTMMPRP: the “shrunken log2 fold change” value is -0.194.

Regarding RRIRIRPPRLPRPRPRPWEFPRP, the “shrunken log2 fold change” value was -0.000856. For the sequence RRIRNRPPRLPRPRPRPYISPRP, the “shrunken log2 fold change” value was found to be 0.00753. Regarding RRIRPRPPRLPRPRPRPERHPRP, the “shrunken log2 fold change” value was determined as 0.00192. For RRIRIRPPRLPRPRPRPWWWPRP, the “shrunken log2 fold change” value is -0.115.

As for RRIRNRPPRLPRPRPRPEKDPRP, the “shrunken log2 fold change” value was -0.0532. For RRIRQRPPRLPRPRPRPWWCPRP, the “shrunken log2 fold change” value is -0.105. For RRIRYRPPRLPRPRPRPWFYPRP, the “shrunken log2 fold change” value is -1.48. The figure for RRIRNRPPRLPRPRPRPFRFPRP is -0.199; for RRIRSRPPRLPRPRPRPIEAPRP it is 0.137; for RRIRARPPRLPRPRPRPNAGPRP it is 0.315. As to RRIRQRPPRLPRPRPRPMFSPRP, the “shrunken log2 fold change” value is 0.0442. With RRIRGRPPRLPRPRPRPSWAPRP the figure was 0.532; with RRIRYRPPRLPRPRPRPFVLPRP, -0.855; with RRIRCRPPRLPRPRPRPNAFPRP, 0.0246. With RRIRQRPPRLPRPRPRPGEEPRP the figure was 0.0331. Consider RRIRARPPRLPRPRPRPAVYPRP, for which the “shrunken log2 fold change” value is -0.079. As for RRIRVRPPRLPRPRPRPYYNPRP, the “shrunken log2 fold change” value was -0.548. For RRIRVRPPRLPRPRPRPNEHPRP, the “shrunken log2 fold change” value was -0.00876.

In the case of RRIRFRPPRLPRPRPRPTFFPRP, the “shrunken log2 fold change” value is -0.169. In the case of RRIRKRPPRLPRPRPRPLETPRP, the “shrunken log2 fold change” value was 0.361. With RRIRYRPPRLPRPRPRPYTNPRP, the “shrunken log2 fold change” value is -1.35. For RRIRTRPPRLPRPRPRPEESPRP, the “shrunken log2 fold change” value was -0.0116. As to RRIRARPPRLPRPRPRPHYYPRP, the “shrunken log2 fold change” value is -0.146. Turning to RRIRQRPPRLPRPRPRPVMLPRP, the “shrunken log2 fold change” value was -0.124. Turning to RRIRVRPPRLPRPRPRPMPPPRP, the “shrunken log2 fold change” value is 0.44. With RRIRNRPPRLPRPRPRPDLMPRP the figure was 3.21; with RRIRMRPPRLPRPRPRPMFLPRP, -0.273; with RRIRWRPPRLPRPRPRPSHNPRP, -0.596. Regarding RRIRERPPRLPRPRPRPHRAPRP, the “shrunken log2 fold change” value was -0.0349. Consider RRIRTRPPRLPRPRPRPFVLPRP, for which the “shrunken log2 fold change” value was -0.296. For the sequence RRIRNRPPRLPRPRPRPMYCPRP, the “shrunken log2 fold change” value was -0.268. With RRIRTRPPRLPRPRPRPDIFPRP the figure was -0.234; with RRIRNRPPRLPRPRPRPSSIPRP, -0.0475.

As for RRIRERPPRLPRPRPRPTGCPRP, the “shrunken log2 fold change” value amounted to 0.155. RRIRQRPPRLPRPRPRPCNHPRP: the “shrunken log2 fold change” value worked out at 0.037. With RRIRWRPPRLPRPRPRPPYYPRP the figure was -0.183; with RRIRRRPPRLPRPRPRPQFSPRP, -0.326; with RRIRERPPRLPRPRPRPHVCPRP, -0.0153. For RRIRNRPPRLPRPRPRPEQTPRP, the “shrunken log2 fold change” value was found to be 0.235. With RRIRHRPPRLPRPRPRPHPTPRP, the “shrunken log2 fold change” value is -0.0838. RRIRKRPPRLPRPRPRPKGFPRP: the “shrunken log2 fold change” value is 0.0233. For the sequence RRIRFRPPRLPRPRPRPRDWPRP, the “shrunken log2 fold change” value was 0.308.

Regarding RRIRHRPPRLPRPRPRPDFWPRP, the “shrunken log2 fold change” value stood at 0.372. With RRIRNRPPRLPRPRPRPMKIPRP the figure was -0.121; with RRIRYRPPRLPRPRPRPPHEPRP, -0.125; with RRIRYRPPRLPRPRPRPDCDPRP, -0.124.

Regarding RRIRRRPPRLPRPRPRPFSGPRP, the “shrunken log2 fold change” value is -0.32.

As to RRIRQRPPRLPRPRPRPEGCPRP, the “shrunken log2 fold change” value is -0.0749. Regarding RRIRWRPPRLPRPRPRPAPKPRP, the “shrunken log2 fold change” value worked out at 0.992.

With RRIRHRPPRLPRPRPRPATAPRP, the “shrunken log2 fold change” value was -0.0944. With RRIRVRPPRLPRPRPRPSIIPRP, the “shrunken log2 fold change” value is -0.384.

With RRIRARPPRLPRPRPRPCFWPRP, the “shrunken log2 fold change” value stood at 0.364. For the sequence RRIRERPPRLPRPRPRPCKYPRP, the “shrunken log2 fold change” value was 3.12.

Regarding RRIRDRPPRLPRPRPRPKRMPRP, the “shrunken log2 fold change” value amounted to 0.0969.

For the sequence RRIRKRPPRLPRPRPRPLSHPRP, the “shrunken log2 fold change” value is 0.131.

RRIRVRPPRLPRPRPRPGQAPRP: the “shrunken log2 fold change” value is -0.0106. With RRIRHRPPRLPRPRPRPQGCPRP, the “shrunken log2 fold change” value is -0.0592. As for RRIRLRPPRLPRPRPRPPRIPRP, the “shrunken log2 fold change” value worked out at 0.0531.

Consider RRIRQRPPRLPRPRPRPTGSPRP, for which the “shrunken log2 fold change” value is -0.0708. Take RRIRMRPPRLPRPRPRPRVEPRP: the “shrunken log2 fold change” value is 0.379. Regarding RRIRVRPPRLPRPRPRPQRQPRP, the “shrunken log2 fold change” value is -0.207. In the case of RRIRDRPPRLPRPRPRPHKDPRP, the “shrunken log2 fold change” value is -0.239. For RRIRWRPPRLPRPRPRPAAHPRP, the “shrunken log2 fold change” value is 0.167. Consider RRIRYRPPRLPRPRPRPIGDPRP, for which the “shrunken log2 fold change” value was -0.00783. With RRIRSRPPRLPRPRPRPAEHPRP the figure was 0.0851.

As to RRIRERPPRLPRPRPRPHNNPRP, the “shrunken log2 fold change” value is 0.486. For the sequence RRIRCRPPRLPRPRPRPAHLPRP, the “shrunken log2 fold change” value was -0.104. As for RRIRLRPPRLPRPRPRPTIVPRP, the “shrunken log2 fold change” value was -0.183. For the sequence RRIRGRPPRLPRPRPRPGNYPRP, the “shrunken log2 fold change” value is -0.0899.

RRIRCRPPRLPRPRPRPDFKPRP: the “shrunken log2 fold change” value is -0.219. With RRIRLRPPRLPRPRPRPHENPRP the figure was 0.0369; with RRIRNRPPRLPRPRPRPSSSPRP, -0.0202. Regarding RRIRGRPPRLPRPRPRPSTGPRP, the “shrunken log2 fold change” value is -0.0729. For the sequence RRIRRRPPRLPRPRPRPSSDPRP, the “shrunken log2 fold change” value is 0.0273. Regarding RRIRLRPPRLPRPRPRPRAGPRP, the “shrunken log2 fold change” value was 0.557. The figure for RRIRLRPPRLPRPRPRPISDPRP is -0.014; for RRIRRRPPRLPRPRPRPVDIPRP it is -0.0798; for RRIRIRPPRLPRPRPRPWVYPRP it is -0.341. RRIRLRPPRLPRPRPRPLEFPRP: the “shrunken log2 fold change” value is -0.252. The figure for RRIRLRPPRLPRPRPRPEGSPRP is -0.0436; for RRIRTRPPRLPRPRPRPDITPRP it is -0.236; for RRIRLRPPRLPRPRPRPWIDPRP it is -0.0305. For RRIRKRPPRLPRPRPRPTREPRP, the “shrunken log2 fold change” value was found to be 0.48.

On to RRIRTRPPRLPRPRPRPTWGPRP, for which the “shrunken log2 fold change” value is 0.31. As to RRIRKRPPRLPRPRPRPNVPPRP, the “shrunken log2 fold change” value was 0.11. As to RRIRERPPRLPRPRPRPYYSPRP, the “shrunken log2 fold change” value is -0.0755. For RRIRIRPPRLPRPRPRPAYCPRP, the “shrunken log2 fold change” value is -0.23.
